# B1: MMP-1 shRNA: Vector-expressed small hairpin RNA, SEQ ID NO:1 (sense) and SEQ ID NO:2 (antisense), specific to bases 234-252 of MMP-1 mRNA (nucleic acid)
# sense: GATCCCCACCAGATGCTGAAACCCTGTTCAAGAGACAGGGTTTCAGCATCTGGTTTTTTGGAAA
# antisense: AGCTTTTCCAAAAAACCAGATGCTGAAACCCTGTCTCTTGAACAGGGTTTCAGCATCTGGTGGG
# modifications: the letters are possibly those of the target site
# Key:
# Format in all cases: cell-based, human
# [1] = test system: MMP-1 protein; test: ELISA for MMP-1 protein in serum-free medium of stable MDA-231 cells; settings: for ng of MMP-1 protein per μg of total protein: average ± S.D.
# Protocol: ELISA for MMP-1 Protein. MMP-1 protein in serum-free culture medium of stably transfected MDA-231 cells was quantified with the human MMP-1 BIOTRAK™ ELISA system that measures both latent and active enzyme (Amersham). Cells were grown in six-well culture dishes with 1 mL of serum-free medium, and after 24 hours of incubation, 100 μL of a 1:30 dilution of the medium was used for the ELISA assays. The cells remaining in the wells were lysed with 350 μL passive lysis buffer (PROMEGA®, Madison, Wis.), and 70 μl was used in a Bradford assay (BIO-RAD®, Hercules, Calif.) to determine the total protein content. The ng of MMP-1 protein from the ELISA results was normalized to μg total protein.
# After initial neomycin selection and isolation of individual stable cell lines, MMP-1 mRNA and protein levels were determined using quantitative RT-PCR (qRT-PCR) and ELISA. MMP-1 mRNA levels were measured in RNA harvested from stably transfected cell lines after a 24 hour incubation in serum-free medium and were normalized to GAPDH mRNA levels. MMP-1 protein levels were measured in the serum-free media of the cell lines after 24 hours of incubation and were normalized to total protein content of the cells. The ELISA measured total (active and zymogen) forms of MMP-1 protein. […] To control for differences introduced into the cell lines during selection, these three individual cell lines for each group were pooled, and all subsequent experiments were performed on pooled cells.
# [2] = test system: MMP-9 mRNA; test: Specificity qRT-PCR, MMP-9 mRNA in stable MDA-231 cells; settings: stable MDA-231 cell lines, 24 hour serum-free; group average ± S.D.; P=0.1 vs empty vector
# Description: (§1) RNA Isolation and Real-Time RT-PCR. […] Real-Time PCR Primer Sequences. […] ID NO:7; MMP-1 reverse [NT] ID NO:8; MMP-2 forward [NT] ID NO:9; MMP-2 reverse [NT] ID NO:10; MMP-9 forward [NT] ID NO:11; MMP-9 reverse [NT] ID NO:12; MMP-13 forward [NT], SEQ ID NO:13; MMP-13 reverse [NT] ID NO:14; MMP-14 forward [NT] ID NO:15; MMP-14 reverse [NT] ID NO:16; GAPDH forward [NT] ID NO:17; GAPDH reverse [NT] ID NO:18; eGFP forward [NT] ID NO:19; eGFP reverse [NT] ID NO:20. Real-Time PCR Standards.
# [3] = test system: MMP-13 mRNA; test: Specificity qRT-PCR, MMP-13 mRNA in stable MDA-231 cells; settings: stable MDA-231 cell lines, 24 hour serum-free; group average ± S.D.; P=0.3 vs empty vector
# Description: as §1
molecule,measurement,setting,value
B1,ng of MMP-1 protein per μg of total protein,"[1]; Group of cell lines D1, Y2, Y7, P=0.002 vs empty vector",0.46 ± 0.04 ng per μg of total protein
same,ng of MMP-1 protein per μg of total protein,[1]; MDA-231 cell line D1,0.49 ± 0.03 ng per μg of total protein
same,ng of MMP-1 protein per μg of total protein,[1]; MDA-231 cell line Y2,0.47 ± 0.01 ng per μg of total protein
same,ng of MMP-1 protein per μg of total protein,[1]; MDA-231 cell line Y7,0.42 ± 0.04 ng per μg of total protein
same,reduction in MMP-1 protein levels compared to empty vector cell lines,"[1]; three stable MDA-231 cell lines, 24 hour serum-free medium",greater than 90%
same,MMP-9 mRNA level,[2],197.3 ± 106 copies of the target gene/pg GAPDH
same,MMP-13 mRNA level,[3],0.5 ± 0.2 copies of the target gene/pg GAPDH

# From patent US7790697B2, “Compositions and methods for inhibiting the synthesis or expression of MMP-1” (Trustees of Dartmouth College, priority 2004, dated 2010)
